Assay results published in patent US20240368230A1, “CELL-PENETRATING PEPTIDES COMPRISING MULTIPLE 5-MER ALPHA-HELIX FRAGMENTS AND USES THEREOF” (ArtProBio Co., Ltd., priority 2023, published 2024).

Assays:
HeLa cells [1] = experiment: Flow cytometry of intracellular delivery of ZsGreen cargo; format: cell-based; conditions: Hela cells, 10, 20 or 50 μM, 4 hours
Description: Hela cells were inoculated onto a 24-well plate (10^5 cells/well) and cultured in a DMEM medium containing 10% FBS for 24 hours. After washing with PBS, the cells were treated with ZsGreen or the CPP22-ZsGreen fusion protein at 0, 10, 20 or 50 μM for 4 hours. Then, after washing the cells twice with PBS and incubating with trypsin (1 mg/mL) for 15 minutes, the peptides bound to the cell surface were removed. The cells were centrifuged at 1,200 rpm for 5 minutes, washed twice with PBS, and then suspended in a PBS buffer containing 10% non-enzymatic cell dissociation solution. The fluorescence intensity of the internalized peptide was measured using a BD LSR II flow cytometer (BD Biosciences, USA).

HeLa cells [2] = experiment: Confocal microscopy of intracellular delivery of ZsGreen cargo; format: cell-based; conditions: 50 μM, 30 minutes
Description: A DMEM medium containing 10% FBS was prepared on an 8-well Lab-Tek II chamber slide (Thermo Fisher Scientific, USA). Hela cells were dispensed in each well at a density of 10^4 cells/well and cultured for 24 hours. The cells were washed twice with PBS and then cultured for 30 minutes after replacing the medium with one containing 50 μM of the ZsGreen or the CPP22-ZsGreen fusion protein. The cells were washed with PBS, treated with DAPI, and then washed with PBS after reaction for 5 minutes (for observation of cell nuclei). Then, the stained cells were observed by confocal microscopy.

IIB RNA = experiment: Fluorescence anisotropy analysis of cRev with Cy3-labeled IIB RNA; format: binding, HIV-1; conditions: Cy3-IIB RNA 250 nM, room temperature, pH 6.0; read-out: Kd (dissociation constant) for the interaction with IIB RNA
Description: IIB RRE labeled with […] Cy3 was dissolved in a binding buffer (25 mM sodium phosphate, 50 mM NaCl, pH 6.0). The peptide (sample) of various concentrations was sequentially added to 250 nM RNA. The final concentration of the peptide was 600 nM. After the mixing, the sample was incubated for 1 minute. There was 1-minute incubation time between all the steps. All the experiments were performed at room temperature. The dissociation constant (Kd) was calculated using the Origin software.
In order to analyze the function of cRev, the cRev of Preparation Example 2 was mixed with Cy3-labeled IIB RNA and then fluorescence anisotropy analysis was performed.

[3] = tested on: wild-type IIB (RRE IIB WT); experiment: EMSA with 32P-labeled wild-type IIB and mutant IIB; format: binding, HIV-1
Description: A peptide (sample) and ^32P-labeled RNA were mixed with a binding buffer (10 mM HEPES (pH 7.5), 100 mM KCl, 1 mM MgCl2, 0.5 mM EDTA, 10% glycerol and […] yeast tRNA). After serially diluting the peptide with the binding buffer, RNA (10 pM) of the same volume was added. The resulting mixture was incubated at room temperature for 30 minutes and electrophoresis was conducted at 4° C. on 10% polyacrylamide gel. The […] was visualized with FLA-7000 Phosphor Imager (GE Healthcare Life Sciences, USA) and analyzed using the Multi Gauge software.
In order to analyze the binding affinity of cRev for IIB RNA, the /Rev of Preparation Example 1 or the cRev of Preparation Example 2 was mixed with ^32P-labeled wild-type IIB and ^32P-labeled mutant IIB, respectively, and analyzed by EMSA (electrophoretic mobility shift assay). The mutation of IIB is the mutation in the G46-C74 base pairs of wild-type IIB.

Row | Molecule | intracellular delivery (flow cytometry) (HeLa cells [1]) | intracellular delivery (confocal microscopy) (HeLa cells [2]) | Kd (IIB RNA) | binding affinity for wild-type IIB compared with /Rev ([3]; wild-type IIB (RRE IIB WT)) | recognition of IIB RNA (EMSA) ([3]; wild-type IIB versus mutant IIB)
1 | ZsGreen: green fluorescent protein, expressed from bacterial cells, used as a comparative example (protein) MAQSKHGLTKEMTMKYRMEGCVDGHKFVITGEGIGYPFKGKQAINLCVVEGGPLPFAEDILSAAFMYGNRVFTEYPQDIADYFKNSCPAGYTWDRSFLFEDGAVCICNADITVSVEENCMYHESKFYGVNFPADGPVMKKMTDNWEPSCEKIIPVPKQGILKGDVSMYLLLKDGGRLRCQFDTVYKAKSVPRKMPDWHFIQHKLTREDRSDAKNQKWHLTEHAIASGSALP | no intracellular delivery was observed | not delivered into the cells | – | – | –
2 | CRGGDEDALKAARAIKFLYQSNPPPNPEGTRQARRNRRRRWRERQRQIHSASERIASTLGGMRM (protein, cyclized via intein; The peptide is circular., cyclic, oligomerization-defective Rev N-terminal domain protein made by intein-mediated cyclization) CRGGDEDALKAARAIKFLYQSNPPPNPEGTRQARRNRRRRWRERQRQIHSASERIASTLGGMRM | – | – | 34 nM | significantly higher binding affinity | specifically recognizes IIB RNA
3 | CPP22-ZsGreen: fusion protein wherein CPP22 is fused with the ZsGreen protein (protein) GSHMASAAAQARRNAAAQARRNAAAQARRNAAAQARRNAAAQARRNAAAGSGSGSGSGPVATMAQSKHGLTKEMTMKYRMEGCVDGHKFVITGEGIGYPFKGKQAINLCVVEGGPLPFAEDILSAAFMYGNRVFTEYPQDIADYFKNSCPAGYTWDRSFLFEDGAVCICNADITVSVEENCMYHESKFYGVNFPADGPVMKKMTDNWEPSCEKIIPVPKQGILKGDVSMYLLLKDGGRLRCQFDTVYKAKSVPRKMPDWHFIQHKLTREDRSDAKNQKWHLTEHAIASGSALP | delivered to and accumulated in the cells at a significantly high level | successfully delivered into and accumulated in the cells at a significant level | – | – | –
